The molecules below were run on Renilla luciferase RNA (assay: Barcoded aptazyme variant library screen: un-cleaved Renilla luciferase RNA by barcode read counts, HEK293-T cells). Settings: un-cleaved Renilla luciferase RNA, HEK293-T cells cultured with 1 mM theophylline (ON) over without theophylline (OFF); barcode read counts, triplicate.
Type: cell-based
Description: Based on the findings from Example 1, an aptazyme variant library was generated from the T3H48 ribozyme with one of seven variant theophylline aptamers inserted sequentially after each nucleotide of the DNA sequence encoding the T3H48 ribozyme sequence. […] The seven variant theophylline aptamers vary in their communication channels, which are the ribonucleotides of the aptamer that attach to the ribozyme sequence (see, Table 2).
The library was barcoded with unique sequences of nine nucleotides flanked by forward and reverse primer amplification sequences.
The aptazyme library was then PCR amplified and cloned into the psiCHECK™-2 dual luciferase vector in the 3′ UTR of the Renilla luciferase gene. […] The next day, the cells were isolated followed by DNA and RNA extraction using standard methods. The purified RNA was then converted to cDNA and the barcoded portion of the aptazyme library was PCR amplified. Similarly, the DNA was PCR amplified and all the samples were sequenced. All experimental conditions (with theophylline and without theophylline) were performed in triplicate. The read count for each barcode was determined with a custom build code and the data was normalized to identify the un-cleaved fractions of the Renilla luciferase RNA from cells that were cultured in the presence or absence of theophylline for each aptazyme, which was used to obtain the fold-change between ON- and OFF-states (FIG. 2).

Molecule | Fold change in RNA expression between the ON state and the OFF state
RA215 (DNA GCTGTCACCGGATGTGCTTTCCGGTACGTGAGGTCCGTGAGGACGAAACAGC; expressed or natural sequence) | 1.2 fold
RA251 (nucleic acid, expressed or natural sequence) DNA: GCGCGTCCTGGACCGGAATACCAGCATCGTCTTGATGCCCTTGGAAGTCCGGTTCGCGGAAACGCGTACATCCAGCTGACGAGTCCCAAATAGGACGAAACGCGC | 1.1 fold
RA252 (nucleic acid, expressed or natural sequence) DNA: GCGCGTCCTGGATTCGCGGAAGTGATACCAGCATCGTCTTGATGCCCTTGGCAGCACTAACGCGTACATCCAGCTGACGAGTCCCAAATAGGACGAAACGCGC | 1.1 fold
RA253 (nucleic acid, expressed or natural sequence) DNA: GCGCGTCCTGGATTCGCGGAAACGCGTACATGGAATACCAGCATCGTCTTGATGCCCTTGGAAGTCCCCAGCTGACGAGTCCCAAATAGGACGAAACGCGC | 1.1 fold
RA254 (nucleic acid, expressed or natural sequence) DNA: GCGCGTCCTGGATTCGCGGAAACGCGTACATCCAGCAGAATACCAGCATCGTCTTGATGCCCTTGGAAGTCTTGACGAGTCCCAAATAGGACGAAACGCGC | 1.1 fold
RA255 (nucleic acid, expressed or natural sequence) DNA: GCGCGTCCTGGATTCGCGGAAACGCGTACATCCAGCTGACGAGTCCCAAATAGGACGAAACCGGAATACCAGCATCGTCTTGATGCCCTTGGAAGTCCGGCGCGC | 1.1 fold
RA256 (nucleic acid, expressed or natural sequence) DNA: GCGCGTCCTGGATTCGCGGAAACGCGTACATGAGAATACCAGCATCGTCTTGATGCCCTTGGAAGTCTCCCAGCTGACGAGTCCCAAATAGGACGAAACGCGC | 1.1 fold
RA257 (nucleic acid, expressed or natural sequence) DNA: GCGCGTCCTGGATTCGCGGAAACGCCGGAATACCAGCATCGTCTTGATGCCCTTGGAAGTCCGGTACATCCAGCTGACGAGTCCCAAATAGGACGAAACGCGC | 1.1 fold
RA258 (nucleic acid, expressed or natural sequence) DNA: GCGCGTCCTGGATTAGTGATACCAGCATCGTCTTGATGCCCTTGGCAGCACTCGCGGAAACGCGTACATCCAGCTGACGAGTCCCAAATAGGACGAAACGCGC | 1.1 fold
RA025 (nucleic acid, expressed or natural sequence) DNA: GCGCGTCCCGAGAATACCAGCATCGTCTTGATGCCCTTGGAAGTCTCGTGGATTCGCGGAAACGCGTACATCCAGCTGACGAGTCCCAAATAGGACGAAACGCGC | 2.5 fold
RA259 (nucleic acid, expressed or natural sequence) DNA: GCGCGTCCTGGATTCGCGGAAACGCGTACATCCAGCTGACGAGTCCCAAATAGGACGAAAAGTGATACCAGCATCGTCTTGATGCCCTTGGCAGCACTCGCGC | 1.1 fold
RA260 (nucleic acid, expressed or natural sequence) DNA: GCGCGTCCTGGATTCGCGGAAACGCCGGAATACCAGCATCGTCTTGATGCCCTTGGAAGTCCGGCGTACATCCAGCTGACGAGTCCCAAATAGGACGAAACGCGC | 1.1 fold
RA261 (nucleic acid, expressed or natural sequence) DNA: GCGCGTCCTGGATTCGCGGAAACGCGTACATCCAGCTGACGAGTCCCAACGAGAATACCAGCATCGTCTTGATGCCCTTGGAAGTCTCGATAGGACGAAACGCGC | 1.1 fold
RA262 (nucleic acid, expressed or natural sequence) DNA: GCTGTCACCGGAATACCAGCATCGTCTTGATGCCCTTGGAAGTCCGGTCTGATGAGTCCCATAAGGACGAAACAGC | 1.1 fold
RA263 (nucleic acid, expressed or natural sequence) DNA: GCGCGTCCTGGATTCGCGGAAACGCGTACATCCAGCTGACGAGTCCCAAAAGTGATACCAGCATCGTCTTGATGCCCTTGGCAGCACTTAGGACGAAACGCGC | 1.1 fold
RA264 (nucleic acid, expressed or natural sequence) DNA: GCGCGTCCTGGATTCGCGGAAACGCGTACATCCAGCTAGAATACCAGCATCGTCTTGATGCCCTTGGAAGTCTGACGAGTCCCAAATAGGACGAAACGCGC | 1.0 fold
RA265 (nucleic acid, expressed or natural sequence) DNA: GCGCGTCCTGGATTCGCGGAAACGCGTACATCCAGCTGACGAGTCCCAAAGGAATACCAGCATCGTCTTGATGCCCTTGGAAGTCCTAGGACGAAACGCGC | 1.0 fold
RA266 (nucleic acid, expressed or natural sequence) DNA: GCGCGTCCTGGATTCGCGGAAACGCGCGAGAATACCAGCATCGTCTTGATGCCCTTGGAAGTCTCGTACATCCAGCTGACGAGTCCCAAATAGGACGAAACGCGC | 1.0 fold
RA267 (nucleic acid, expressed or natural sequence) DNA: GCGCGTCCTGGATTCGCGGAAACGCGTACATCCAGCTGACGAGTGGAATACCAGCATCGTCTTGATGCCCTTGGAAGTCCCCCAAATAGGACGAAACGCGC | 1.0 fold
RA268 (nucleic acid, expressed or natural sequence) DNA: GCGCGTCCTGGATTCGCGGAAACGCGTACATCCAGCTGACGAGTCCCAAATAGGACGAAACGCGGAGAATACCAGCATCGTCTTGATGCCCTTGGAAGTCTCC | 1.0 fold
RA026 (nucleic acid, expressed or natural sequence) DNA: GCGCGTCCTGGATTCGCGGAAACGCGTACATCCAGCTGACGAGTCCGAGAATACCAGCATCGTCTTGATGCCCTTGGAAGTCTCGCCAAATAGGACGAAACGCGC | 2.4 fold
RA269 (nucleic acid, expressed or natural sequence) DNA: GCGCGTCCTGGATTCGCGGAAACGCGAGAATACCAGCATCGTCTTGATGCCCTTGGAAGTCTTACATCCAGCTGACGAGTCCCAAATAGGACGAAACGCGC | 1.0 fold
RA270 (nucleic acid, expressed or natural sequence) DNA: GCGCGTCCTGGATTCGCGGAAACGCGTACATCCAGCTGACGAGTCCCAAATAGGACGAAGAATACCAGCATCGTCTTGATGCCCTTGGAAGTCTAACGCGC | 1.0 fold
RA271 (nucleic acid, expressed or natural sequence) DNA: GCGCGTCCTGGATTCGCGGAAACGCGTACATCCAGCTGACGAGTCCCAACCGGAATACCAGCATCGTCTTGATGCCCTTGGAAGTCCGGATAGGACGAAACGCGC | 1.0 fold
RA272 (nucleic acid, expressed or natural sequence) DNA: GCGCGTCCTGGATTCGCGGAAACGCGTACATCCAGCTGACGAGTCCCAAATAGGACGAAACGCGCAGAATACCAGCATCGTCTTGATGCCCTTGGAAGTCT | 1.0 fold
RA273 (nucleic acid, expressed or natural sequence) DNA: GCGCGTCCTGGATTCGCGGGAATACCAGCATCGTCTTGATGCCCTTGGAAGTCCGAAACGCGTACATCCAGCTGACGAGTCCCAAATAGGACGAAACGCGC | 1.0 fold
RA274 (nucleic acid, expressed or natural sequence) DNA: GCGCGTCCTGGATTCGCGGAAACGCGTACATCCAGCTGACGAGTCCCAAAGAGAATACCAGCATCGTCTTGATGCCCTTGGAAGTCTCTAGGACGAAACGCGC | 1.0 fold

Reference: patent US20260167959A1, “APTAZYME-BASED REGULATABLE GENE EXPRESSION SYSTEMS” (REJUVENATE BIO INC, priority 2022, published 2026)
